Test system: MS2 coat protein
Assay: apparent KD of MS2 coat protein; designed switch direction (-1 OFF switch, 1 ON switch): -1; higher = weaker reporter binding
In short: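 Each step of the titration lasted 0.8–1.5 h at the lowest concentration and 10–20 min at the highest. The protein, SNAP-549-labelled MS2 coat protein, went from 0.7 or 1.5 nM doubling to 3 µM over RNA switches transcribed on Illumina chips by stalled E. coli RNA polymerase. Normalised cluster fluorescence was curve-fitted, and the per-design median over clusters is given as apparent KD.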

[1] = Eterna round: R95, input ligand: FMN 200 uM
[2] = Eterna round: R95, input ligand: microRNA oligo, concentration not stated
[3] = Eterna round: R95, input ligand: none
[4] = input ligand: microRNA oligo, concentration not stated

Row | Sequence | apparent KD of MS2 coat protein (input ligand: FMN 200 uM) [nM] | apparent KD of MS2 coat protein (input ligand: none) [nM] | apparent KD of MS2 coat protein [1] [nM] | apparent KD of MS2 coat protein [2] [nM] | apparent KD of MS2 coat protein [3] [nM] | apparent KD of MS2 coat protein [4] [nM]
1 | GAUUAAUUAAUUAAUUAAUACAUGAGGAUCACCCAUGUAAUUUAAGAUCCUUAUACAAGCUUUGAUCUCGUCUUAUA [Stov1/5-A2] (Eterna round: R97, puzzle: Sensor, turn-off variant 1) | 163 | 159 |  |  |  | 
2 | GAUUAUGCGAGCUUUAGGGACAUGAGGAUCACCCAUGUUCGUCUUAUUAAUCUAGGUGCACUAACAUACCUAAAUCU [JMF 32] (puzzle: Sensor v3, turn-off variant 1) |  |  | 21.9 | 39.4 | 21.7 | 
3 | GAUUAUGCGAGCUUUAGGGACAUGAGGAUCACCCAUGUUCGUCUUAUUAGUCUAAGUACACUGACAUACCUAAAUCU [JMF 61] (puzzle: Sensor v3, turn-off variant 1) |  |  | 13.3 | 14.2 | 12.4 | 
4 | GAUUAUGCGAGCUUUAGGGACAUGAGGAUCACCCAUGUUCGUCUUAUUGGUCUAGGUACACUAACAUACCUAAAUCU [JMF 19] (puzzle: Sensor v3, turn-off variant 1) |  |  | 20.4 | 38.9 | 21.3 | 
5 | GAUUAUGCGAGCUUUAGGGACAUGAGGAUCACCCAUGUUCGUCUUAUUGGUCUAGGUGCACUGACAUACCUAAAUCU [JMF 91] (puzzle: Sensor v3, turn-off variant 1) |  |  | 20.3 | 34.9 | 20.5 | 
6 | GAUUGACAUGAGGAUCACCCAUGUGAGGAUAUCGGCCGGACCUUGUUAGCUUCCAUCGCGAGAAGGCACAUAGG [Exclusion 1 V32] (puzzle: Exclusion 1) |  |  |  | 25.2 |  | 
7 | GAUUGACAUGAGGAUCACCCAUGUGAGGAUAUCGGCUGGACCGUGUUGGCUUCCGUCUCGAGAAGGCGCAUAGG [Exclusion 1 V43] (Eterna round: R96, puzzle: Exclusion 1) | 43.5 | 26.8 |  |  |  | 23.9
8 | GAUUGACAUGAGGAUCACCCAUGUGAGGAUAUCGGCUGGACCGUGUUGGCUUCCGUCUCGAGAAGGCGCAUAGG [Exclusion 1 V43] (puzzle: Exclusion 1) |  |  | 137 | 39.7 | 44.4 | 
9 | GAUUGAGCUGUUAGGAUAUCCGCAGGCCGCCUGGAGGAGAAGGAACAUGAGGAUCACCCAUGUGCACGGGAGGC [Xemaesti] (Eterna round: R97, puzzle: Brourd's mod of Exclusion 4) | 13.4 | 15.8 |  |  |  | 
10 | GCAAAAUAUCAGGAUAUGACUAGCUGCGGCUAGUCAGAAGGGAUGACAUGAGGAUCACCCAUGUGAUCUCGUGU [JR_Ex6_Sub028] (Eterna round: R97, puzzle: Exclusion 6) | 487 | 177 |  |  |  | 
11 | GCAAAGGUAGGAUAUCCACUGUGCAACAUGAGGAUCACCCAUGUGGUUCUUACCAUAAUUGGAGAAGGGCCGUGCA [Inrariri] (puzzle: Exclusion 5) |  |  | 19.7 | 19.3 | 24.2 | 
12 | GCAAAUCAUGUAGGAUAUGCGUGGCGAAGCUAUGCAGAAGGACAUGAGGAUCACCCAUGUGCUUCCGUCUGCGUACAGACGGUA [Mat - Exclusion NG 1 - Mod of JL - D18] (Eterna round: R96, puzzle: Exclusion NG 1) | 93.5 | 91.3 |  |  |  | 73.4
13 | GCAAGAAUAGGAUAUACACCAUGUCAGCUUCUAUACAACGCACAUGAGGAUCACCCAUGUAGAAGGGUUCUCUG [Exclusion-2-#10] (Eterna round: R97, puzzle: Exclusion 2) | 358 | 365 |  |  |  | 
14 | GCAAGCGACUAGGCUCGUCUUAUAUUGAAAAGAUUGAAAACAUGAGGAUCACCCAUGUAUGUGGGAGAGUUGAAGUG [JR_SV3TOV2_Sub011] (puzzle: Sensor v3, turn-off variant 2) |  |  | 286 | 395 | 310 | 
15 | GCAAGCUUAAUCUGUAUGAACAUGAGGAUCACCCAUGUAUAAGGUAAUUCUGUUGGGUUUUUUAUUGCUCGUCUUAU [JR_STOV1_Sub026] (Eterna round: R97, puzzle: Sensor, turn-off variant 1) | 71.8 | 76.9 |  |  |  | 
16 | GCAAGCUUUUGCUCGUCUUACAUGAGGAUCACCCAUGUCGGGUUCGGUCGUCGCGGCUGGGCUUGCCGGGCGCCGGG [-28.7, -55.8 kcal, A 10%] (Eterna round: R97, puzzle: Sensor, turn-off variant 1) | 215 | 244 |  |  |  | 

Row | Sequence | apparent KD of MS2 coat protein (input ligand: FMN 200 uM) [nM] | apparent KD of MS2 coat protein (input ligand: none) [nM] | apparent KD of MS2 coat protein [1] [nM] | apparent KD of MS2 coat protein [2] [nM] | apparent KD of MS2 coat protein [3] [nM] | apparent KD of MS2 coat protein [4] [nM]
17 | GCACAGGCAGGAUAUACAUGAGGAUCACCCAUGUGAUCCCUUAGGUACAAAAGUACAAGUAGAAGGGCCUGUGC [Omei Ex3 Model Bachelor's Dilema v45] (Eterna round: R97, puzzle: Exclusion 3) | 146 | 1460 |  |  |  | 
18 | GCACGAAGUGUAGGAUAUCUGUGCGAUUAGCUCAGAGAAGGACACAUGAGGAUCACCCAUGUGUUCCGCGGAAGCAAUACGUGC [Eli exng1 - 057] (Eterna round: R96, puzzle: Exclusion NG 1) | 10.7 | 13.3 |  |  |  | 9.73
19 | GCACGGAGUGUAGGAUAUCUGUGCGAUUAGCUCAGAGAAGGACACAUGAGGAUCACCCAUGUGUUCCACCGAAAGGUUCCGUGC [Eli exng1 - 048] (Eterna round: R96, puzzle: Exclusion NG 1) | 11 | 11.4 |  |  |  | 8.4
20 | GCACUGCGAGGAUAUACAUGAGGAUCACCCAUGUAUCGGUAGUCAAGGUUAAUUUAAGGUAGAAGGCGCGUAAA [JR_Ex3_Sub005] (Eterna round: R97, puzzle: Exclusion 3) | 27.4 | 23.5 |  |  |  | 
21 | GCAGCAACUCUAAUCAAUCCAACAUGAGGAUCACCCAUGUCUCAGGAUAUGGUCUGGAUUACAGGCCAGAAGGGAGAAAGCUGC [Eli exng3 - 046] (Eterna round: R96, puzzle: Exclusion NG 3) | 9.07 | 11.9 |  |  |  | 7.62
22 | GCAGCAACUCUCACUAACUAAACAUGAGGAUCACCCAUGUCUCAGGAUAUGGUCUGGAUUACAGGCCAGAAGGGAGAAAGCUGC [Eli exng3 - 040] (Eterna round: R96, puzzle: Exclusion NG 3) | 9.73 | 13.1 |  |  |  | 10.6
23 | GCAGCAACUCUUACUAACUAAACAUGAGGAUCACCCAUGUCUCAGGAUAUGGUCUGGAUUACAGGCCAGAAGGGAGAAAGCUGC [Eli exng3 - 038] (Eterna round: R96, puzzle: Exclusion NG 3) | 15.6 | 16.9 |  |  |  | 11.2
24 | GCAGCAUAGAUUACUAGCUGUUACAUGAGGAUCACCCAUGUUCAGGAUAUGGUCUGGAUUACAGGCCAGAAGGGAACAAGCUGC [finally!] (Eterna round: R96, puzzle: Exclusion NG 3) | 14.2 | 16.6 |  |  |  | 12.9
25 | GCAGCAUAGUGUAAUAACACAAUACAUGAGGAUCACCCAUGUGAGGAUAUGGACUGGAUUACAGUCCAGAAGGCACAAAGCUGC [Zipper Style 2] (Eterna round: R96, puzzle: Exclusion NG 3) | 19.9 | 21.1 |  |  |  | 13.3
26 | GCAGCAUAGUUUACUAACUGUUACAUGAGGAUCACCCAUGUCUAGGAUAUGGUCUGGAUUACAGGCCAGAAGGAGAAAAGCUGC [Eli exng3 - 036] (Eterna round: R96, puzzle: Exclusion NG 3) | 15.3 | 16.8 |  |  |  | 13
27 | GCAGCAUAGUUUACUAACUGUUACAUGAGGAUCACCCAUGUUGAGGAUAUGGUCUGGAUUACAGGCCAGAAGGCGACAAGCUGC [Eli exng3 - 028] (Eterna round: R96, puzzle: Exclusion NG 3) | 18.1 | 16.9 |  |  |  | 13
28 | GCAGCAUAUGUAGGAUAUCUGCACGUUUAGUGCAGAGAAGGACAUGAGGAUCACCCAUGUAAUUAAGAUCAAUUAUUAAGCUGC [ENG1/4-A2] (Eterna round: R96, puzzle: Exclusion NG 1) | 42.5 | 26.2 |  |  |  | 17.2
29 | GCAGCAUUGUUUACUAACAGUUACAUGAGGAUCACCCAUGUUCAGGAUAUGGUCUGGAUUACAGGCCAGAAGGGAACAAGCUGC [Eli exng3 - 031] (Eterna round: R96, puzzle: Exclusion NG 3) | 9.09 | 15 |  |  |  | 9.39
30 | GCAGGAUAAGUCAGGAUAUACCUAUGGAUACAUAGGUAGAAGGGACAUGAGGAUCACCCAUGUGACUCACCUGC [Fiskers BMX 4 - 62] (puzzle: Brourd's mod of Exclusion 4) |  |  | 95.6 | 27.8 | 27 | 
31 | GCAGGAUAAGUGAGGAUAUACCUCUGGAUACAGAGGUAGAAGGCACAUGAGGAUCACCCAUGUUACUCACCUGC [Fiskers BMX 4 - 76] (puzzle: Brourd's mod of Exclusion 4) |  |  |  | 10.9 |  | 
32 | GCAUGCUAUGUCAGGAUAUACCUGUGGAUACAUAGGUAGAAGGGACAUGAGGAUCACCCAUGUCCUAAUCAUGC [Fiskers BMX 4 - 24] (Eterna round: R96, puzzle: Brourd's mod of Exclusion 4) | 11.6 | 13.4 |  |  |  | 10

— the supplement of paper PMC9170038
